Measured values: paper PMC3785249
pKd: −log10 of the molar value.

Assays:
[1] = biological target: human FcγRIIa^H131, extracellular region (UniProt P12318); experiment: binding screen of single-substitution variants (method not named in legend); settings: read off a plot
[2] = biological target: human FcγRIIa^R131, extracellular region; experiment: as above; settings: read off a plot
[3] = biological target: human FcγRIIb, extracellular region (UniProt P31994); experiment: as above; settings: read off a plot
[4] = biological target: S267E/L328F variant of human IgG1 (human); experiment: SPR; Biacore; antibody variants captured on a CM5 chip with immobilised antigen peptide or protein A/G, FcγR injected; kinetic analysis by global fitting with a 1:1 Langmuir model (KD)
[5] = biological target: V12 variant of human IgG1 (human); experiment: SPR; KD for soluble hFcRn at pH 6.0; as described previously (Igawa et al., 2010)
[6] = biological target: wild-type human IgG1 (human); experiment: as above

Sequence of UniProt P12318 (P12318 34-217): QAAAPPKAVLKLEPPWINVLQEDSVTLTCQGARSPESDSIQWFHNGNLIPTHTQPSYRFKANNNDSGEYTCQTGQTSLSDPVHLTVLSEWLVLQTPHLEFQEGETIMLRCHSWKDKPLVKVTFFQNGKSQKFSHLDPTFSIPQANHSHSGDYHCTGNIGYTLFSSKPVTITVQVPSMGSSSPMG
Sequence of UniProt P31994 (P31994 43-217): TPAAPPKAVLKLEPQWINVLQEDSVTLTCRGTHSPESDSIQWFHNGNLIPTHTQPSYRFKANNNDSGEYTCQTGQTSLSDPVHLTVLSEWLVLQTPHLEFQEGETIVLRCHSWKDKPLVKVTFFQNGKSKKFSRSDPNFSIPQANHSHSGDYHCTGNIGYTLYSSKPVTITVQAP

Substance | percent of parent (template antibody = 100) [1] | percent of parent (template antibody = 100) [2] | percent of parent (template antibody = 100) [3] | fold increase in affinity over IgG1, KD (IgG1)/KD (Fc variant) [4] [fold] | pKd [5] | pKd [6]
wild-type human IgG1 L328F | 53 | 190 | 300 |  |  | 
wild-type human IgG1 S267E | 100 | 190 | 410 |  |  | 
wild-type human IgG1 P238D | 2 | 12 | 210 |  |  | 

Second part, the substance after the results:

percent of parent (template antibody = 100) [1] | percent of parent (template antibody = 100) [2] | percent of parent (template antibody = 100) [3] | fold increase in affinity over IgG1, KD (IgG1)/KD (Fc variant) [4] [fold] | pKd [5] | pKd [6] | Substance
 |  |  | 864 |  |  | human FcγRIIa^R131, extracellular region (receptor)
 |  |  |  | 5.85 | 5.82 | recombinant, soluble human FcRn (from UniProt P55899 24-297) (complex)
15 |  | 180 |  |  |  | wild-type human IgG1 L328E
